Test results from patent publication US20050100554A1 (published 2005).

B3: Human Papillomavirus 1a E1 (other)
chain: MADNKGTENDWFLVEATDCEETLEETSLGDLDNVSCVSDLSDLLDEAPQSQGNSLELFHKQESLESEQELNALKRKLLYSPQARSADETDIASISPRLETISITKQDKKRYRRQLFSQDDSGLELSLLQDETENIDESTQVDQQQKEHTGEVGAAGVNILKASNIRAALLSRFKDTAGVSFTDLTRSYKSNKTCCGDWVLAVWGVRENLIDSVKELLQTHCVYIQLEHAVTEKNRFLFLLVRFKAQKSRETVIKLITTILPVDASYILSEPPKSRSVAAALFWYKRSMSSTVFTWGTTLEWIAQQTLINHQLDSESPFELCKMVQWAYDNGHTEECKIAYYYAVLADEDENARAFLSSNSQAKYVKDCAQMVRHYLRAEMAQMSMSEWIFRKLDNVEGSGNWKEIVRFLRFQEVEFISFMIAFKDLLCGKPKKNCLLIFGPPNTGKSMFCTSLLKLLGGKVISYCNSKSQFWLQPLADAKIGLLDDATKPCWDYMDIYMRNALDGNTICIDLKHRAPQQIKCPPLLITSNIDVKSDTCWMYLHSRISAFKFAHEFPFKDNGDPGFSLTDENWKSFFERFWQQLELSDQEDEGNDGKPQQSLRLTARAANEPI
notes: also called HPV 1a E1; cbe_552975

Experiments:
[1] = target: T1, exportin 1 (CRM1 homolog, yeast) (human, UniProt O14980 1-1071); experiment: Y2H; INT ID 424
T1 construct: also called XPO1; cbe_3621798

[2] = target: T2, hexokinase 1 (human, UniProt P19367 22-917); experiment: Y2H; INT ID 425
T2 construct: also called HK1; cbe_3665307
T2 sequence: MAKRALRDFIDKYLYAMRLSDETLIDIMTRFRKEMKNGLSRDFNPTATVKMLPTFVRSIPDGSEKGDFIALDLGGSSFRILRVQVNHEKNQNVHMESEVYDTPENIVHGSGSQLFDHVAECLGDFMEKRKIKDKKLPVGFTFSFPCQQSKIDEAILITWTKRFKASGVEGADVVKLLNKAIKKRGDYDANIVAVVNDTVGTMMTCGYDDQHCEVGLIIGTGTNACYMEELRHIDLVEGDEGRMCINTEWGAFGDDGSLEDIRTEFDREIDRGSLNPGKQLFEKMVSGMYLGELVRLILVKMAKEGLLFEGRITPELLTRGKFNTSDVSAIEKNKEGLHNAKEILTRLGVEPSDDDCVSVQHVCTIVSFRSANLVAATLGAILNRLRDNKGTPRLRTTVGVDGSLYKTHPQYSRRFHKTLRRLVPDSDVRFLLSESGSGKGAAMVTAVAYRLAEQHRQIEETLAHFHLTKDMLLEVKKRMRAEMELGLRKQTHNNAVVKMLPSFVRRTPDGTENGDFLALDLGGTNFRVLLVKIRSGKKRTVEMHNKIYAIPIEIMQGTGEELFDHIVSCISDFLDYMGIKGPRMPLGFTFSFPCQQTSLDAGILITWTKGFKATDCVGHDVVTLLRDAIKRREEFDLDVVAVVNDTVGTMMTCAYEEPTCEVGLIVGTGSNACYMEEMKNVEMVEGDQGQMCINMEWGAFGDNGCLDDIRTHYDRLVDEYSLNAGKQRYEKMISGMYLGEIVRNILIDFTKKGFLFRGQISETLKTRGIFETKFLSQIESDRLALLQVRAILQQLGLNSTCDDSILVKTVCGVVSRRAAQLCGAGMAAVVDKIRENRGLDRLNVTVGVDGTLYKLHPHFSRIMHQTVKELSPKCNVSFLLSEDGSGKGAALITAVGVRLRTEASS

[3] = target: T3, ANXA2 (human, UniProt P07355 2-339); experiment: Y2H; INT ID 426
T3 construct: also called cbe_4267867

[4] = target: B3; experiment: Y2H; INT ID 583
[5] = target: T4, NDUFAB1 (human, UniProt O14561 69-156); experiment: Y2H; INT ID 587
T4 construct: also called cbe_4269931

[6] = target: T5, TLK2 (human, UniProt Q86UE8 1-772, limits assumed); experiment: Y2H; INT ID 584
T5 construct: Y2H Gal4 fusion; also called cbe_4269167

[7] = target: T6, PTPN2 (human, UniProt P17706 1-415); experiment: Y2H; INT ID 160
T6 construct: also called cbe_2576474
T6 sequence (looked up): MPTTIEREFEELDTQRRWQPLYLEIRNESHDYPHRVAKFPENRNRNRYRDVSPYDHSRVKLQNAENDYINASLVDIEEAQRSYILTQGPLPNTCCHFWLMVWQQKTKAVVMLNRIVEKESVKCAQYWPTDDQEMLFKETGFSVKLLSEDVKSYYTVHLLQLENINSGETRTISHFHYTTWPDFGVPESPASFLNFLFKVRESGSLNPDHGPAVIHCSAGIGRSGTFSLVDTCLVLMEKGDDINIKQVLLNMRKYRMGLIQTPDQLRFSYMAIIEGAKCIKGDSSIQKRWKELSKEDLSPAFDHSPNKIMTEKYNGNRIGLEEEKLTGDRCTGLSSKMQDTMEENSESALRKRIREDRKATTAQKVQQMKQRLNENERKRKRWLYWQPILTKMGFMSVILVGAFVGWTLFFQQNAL

[8] = target: T7, RPS26 (human, UniProt P62854 2-115); experiment: Y2H; INT ID 99
T7 construct: also called cbe_4270015

[9] = target: T8, PSMC1 (human, UniProt P62191 2-440); experiment: Y2H (told in text)
T8 construct: also called proteosome 26S subunit; proteosome subunit PMSC1

[10] = target: T9, STX4A (human, UniProt Q12846 1-297); experiment: Y2H (told in text)
T9 construct: also called syntaxin 4; cbe_4270186
T9 sequence: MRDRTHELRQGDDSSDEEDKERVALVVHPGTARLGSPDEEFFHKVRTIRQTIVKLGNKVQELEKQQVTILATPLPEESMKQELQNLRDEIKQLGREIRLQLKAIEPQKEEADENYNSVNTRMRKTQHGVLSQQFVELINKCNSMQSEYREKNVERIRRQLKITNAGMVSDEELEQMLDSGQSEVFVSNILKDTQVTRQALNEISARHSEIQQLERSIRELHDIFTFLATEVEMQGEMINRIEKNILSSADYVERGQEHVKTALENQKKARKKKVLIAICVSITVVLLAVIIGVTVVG

[11] = target: T10, RBP4 (human, UniProt P02753 19-201); experiment: Y2H; INT ID 433
T10 construct: also called cbe_4265947

[12] = target: T11, tissue factor pathway inhibitor (lipoprotein-associated coagulation inhibitor) (human, UniProt P10646 29-304); experiment: Y2H; INT ID 309
T11 construct: also called TFPI; cbe_3834015
T11 sequence: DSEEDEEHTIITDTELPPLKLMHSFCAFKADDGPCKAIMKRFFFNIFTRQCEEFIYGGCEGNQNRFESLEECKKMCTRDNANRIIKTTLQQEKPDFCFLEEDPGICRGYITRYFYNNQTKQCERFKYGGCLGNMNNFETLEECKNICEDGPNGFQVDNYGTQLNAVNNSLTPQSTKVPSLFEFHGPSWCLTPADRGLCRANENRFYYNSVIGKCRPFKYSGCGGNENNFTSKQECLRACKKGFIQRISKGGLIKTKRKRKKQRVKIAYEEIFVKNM

[13] = target: T12, Homo sapiens QUAKING isoform 5 (QUAKING) (human, UniProt Q96PU8 5-341); experiment: Y2H; INT ID 431
T12 construct: also called cbe_3810032
T12 sequence: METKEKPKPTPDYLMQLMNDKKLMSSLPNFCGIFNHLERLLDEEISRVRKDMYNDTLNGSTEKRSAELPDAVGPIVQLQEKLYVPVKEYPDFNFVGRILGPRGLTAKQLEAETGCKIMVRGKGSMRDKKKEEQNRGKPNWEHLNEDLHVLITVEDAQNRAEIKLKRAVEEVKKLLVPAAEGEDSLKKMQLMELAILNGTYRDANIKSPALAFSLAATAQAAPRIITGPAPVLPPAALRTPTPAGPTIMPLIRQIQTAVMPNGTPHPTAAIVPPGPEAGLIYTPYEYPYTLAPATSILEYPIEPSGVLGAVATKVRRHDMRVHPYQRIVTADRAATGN

[14] = target: T13, phosphoglycerate mutase 1 (brain) (human, UniProt P18669 2-254); experiment: Y2H; INT ID 432
T13 construct: also called PGAM1; cbe_3820530
T13 sequence: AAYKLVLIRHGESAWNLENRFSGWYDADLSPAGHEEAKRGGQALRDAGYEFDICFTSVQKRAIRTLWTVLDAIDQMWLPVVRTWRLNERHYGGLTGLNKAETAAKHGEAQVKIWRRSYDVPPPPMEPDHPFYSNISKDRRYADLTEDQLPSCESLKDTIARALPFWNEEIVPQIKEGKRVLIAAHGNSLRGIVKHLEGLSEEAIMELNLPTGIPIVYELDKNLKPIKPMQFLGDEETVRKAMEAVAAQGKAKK

[15] = target: T14, adaptor-related protein complex 2, mu 1 subunit (human, UniProt Q96CW1 1-435); experiment: Y2H; INT ID 430
T14 construct: also called AP2M1; cbe_3789063

Measured: binding result

T5 sequence (Q86UE8 whole entry, the tested form may be a part): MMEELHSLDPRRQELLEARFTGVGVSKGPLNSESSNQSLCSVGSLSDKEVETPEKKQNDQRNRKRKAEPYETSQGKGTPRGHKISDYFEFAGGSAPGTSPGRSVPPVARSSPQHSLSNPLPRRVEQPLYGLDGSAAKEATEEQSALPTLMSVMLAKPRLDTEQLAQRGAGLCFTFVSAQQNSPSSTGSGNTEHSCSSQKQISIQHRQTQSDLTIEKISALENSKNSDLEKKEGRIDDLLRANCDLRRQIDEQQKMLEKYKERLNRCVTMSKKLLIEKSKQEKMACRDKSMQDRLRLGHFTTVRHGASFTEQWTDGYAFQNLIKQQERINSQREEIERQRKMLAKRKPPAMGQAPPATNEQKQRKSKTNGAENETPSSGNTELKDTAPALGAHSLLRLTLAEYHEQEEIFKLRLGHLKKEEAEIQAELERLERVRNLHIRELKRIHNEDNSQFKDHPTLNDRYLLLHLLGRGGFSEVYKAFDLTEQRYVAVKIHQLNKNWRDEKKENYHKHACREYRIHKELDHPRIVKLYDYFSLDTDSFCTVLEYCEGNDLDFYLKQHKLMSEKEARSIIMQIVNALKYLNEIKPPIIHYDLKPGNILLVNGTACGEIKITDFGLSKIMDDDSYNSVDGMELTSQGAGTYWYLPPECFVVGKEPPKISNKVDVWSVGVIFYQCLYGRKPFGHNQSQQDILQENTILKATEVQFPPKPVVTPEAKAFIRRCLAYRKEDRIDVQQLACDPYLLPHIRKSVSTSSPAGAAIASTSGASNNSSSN
T1 sequence (O14980 whole entry): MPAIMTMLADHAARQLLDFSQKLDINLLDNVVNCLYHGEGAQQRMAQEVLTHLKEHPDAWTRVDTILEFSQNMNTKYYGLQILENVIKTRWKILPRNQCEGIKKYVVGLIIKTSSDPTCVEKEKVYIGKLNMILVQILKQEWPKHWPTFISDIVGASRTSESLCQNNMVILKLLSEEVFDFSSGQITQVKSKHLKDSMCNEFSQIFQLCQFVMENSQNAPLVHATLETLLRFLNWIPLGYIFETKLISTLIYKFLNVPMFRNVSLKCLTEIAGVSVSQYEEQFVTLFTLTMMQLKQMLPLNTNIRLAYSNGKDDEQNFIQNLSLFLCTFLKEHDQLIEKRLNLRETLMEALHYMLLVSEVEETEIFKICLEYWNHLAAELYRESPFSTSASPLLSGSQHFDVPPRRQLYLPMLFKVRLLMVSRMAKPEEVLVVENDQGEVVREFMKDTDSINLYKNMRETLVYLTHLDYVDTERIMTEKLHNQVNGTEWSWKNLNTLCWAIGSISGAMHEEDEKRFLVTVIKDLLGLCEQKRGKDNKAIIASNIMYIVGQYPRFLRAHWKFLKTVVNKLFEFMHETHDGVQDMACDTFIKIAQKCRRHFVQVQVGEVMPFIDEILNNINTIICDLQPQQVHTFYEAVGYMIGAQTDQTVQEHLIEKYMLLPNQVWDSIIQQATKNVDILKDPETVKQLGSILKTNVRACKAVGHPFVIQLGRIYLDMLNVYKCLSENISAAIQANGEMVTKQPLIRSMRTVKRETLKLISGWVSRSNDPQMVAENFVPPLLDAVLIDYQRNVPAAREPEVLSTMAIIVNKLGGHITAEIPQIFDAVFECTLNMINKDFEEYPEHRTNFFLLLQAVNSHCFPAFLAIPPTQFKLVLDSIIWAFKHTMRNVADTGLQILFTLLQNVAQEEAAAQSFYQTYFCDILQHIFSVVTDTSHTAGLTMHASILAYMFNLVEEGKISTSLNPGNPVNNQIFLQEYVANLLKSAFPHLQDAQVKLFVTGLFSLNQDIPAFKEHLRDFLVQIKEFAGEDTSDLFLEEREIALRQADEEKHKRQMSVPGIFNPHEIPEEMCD
T8 sequence (P62191 2-440 limits assumed): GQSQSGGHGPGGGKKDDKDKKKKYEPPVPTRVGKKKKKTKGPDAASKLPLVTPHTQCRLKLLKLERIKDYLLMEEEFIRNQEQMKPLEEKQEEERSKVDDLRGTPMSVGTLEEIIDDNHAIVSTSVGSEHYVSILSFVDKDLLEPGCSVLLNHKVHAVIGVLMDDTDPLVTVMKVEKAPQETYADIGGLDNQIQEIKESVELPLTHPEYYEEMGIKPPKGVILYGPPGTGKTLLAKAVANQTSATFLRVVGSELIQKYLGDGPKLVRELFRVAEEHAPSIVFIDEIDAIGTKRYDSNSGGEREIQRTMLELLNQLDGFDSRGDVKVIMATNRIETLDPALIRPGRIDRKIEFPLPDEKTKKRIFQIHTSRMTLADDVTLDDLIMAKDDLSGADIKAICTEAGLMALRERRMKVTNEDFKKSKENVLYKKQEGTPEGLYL
T3 sequence (P07355 2-339 limits assumed): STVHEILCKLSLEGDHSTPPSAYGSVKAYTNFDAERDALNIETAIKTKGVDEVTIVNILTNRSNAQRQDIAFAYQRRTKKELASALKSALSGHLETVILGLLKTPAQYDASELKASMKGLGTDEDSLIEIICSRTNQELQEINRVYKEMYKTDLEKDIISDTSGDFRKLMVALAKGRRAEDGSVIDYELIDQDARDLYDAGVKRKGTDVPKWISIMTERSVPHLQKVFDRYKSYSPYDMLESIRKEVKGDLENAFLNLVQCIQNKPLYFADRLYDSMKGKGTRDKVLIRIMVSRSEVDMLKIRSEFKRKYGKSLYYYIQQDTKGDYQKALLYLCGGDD
T14 sequence (Q96CW1 whole entry, one chain of several): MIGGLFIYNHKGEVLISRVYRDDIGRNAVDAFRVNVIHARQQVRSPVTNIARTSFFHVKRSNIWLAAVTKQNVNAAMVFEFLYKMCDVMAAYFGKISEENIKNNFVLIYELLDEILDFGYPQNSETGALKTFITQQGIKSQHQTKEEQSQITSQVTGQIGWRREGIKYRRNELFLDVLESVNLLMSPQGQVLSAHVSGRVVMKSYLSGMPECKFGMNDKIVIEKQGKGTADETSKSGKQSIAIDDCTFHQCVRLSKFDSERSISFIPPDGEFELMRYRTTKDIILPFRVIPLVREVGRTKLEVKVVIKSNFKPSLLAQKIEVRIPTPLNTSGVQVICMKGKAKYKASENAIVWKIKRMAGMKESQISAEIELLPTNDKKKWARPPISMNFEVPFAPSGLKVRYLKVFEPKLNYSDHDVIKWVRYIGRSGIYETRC

B1: Human Papillomavirus 1a E6 (other)
chain: MATPIRTVRQLSESLCIPYIDVLLPCNFCNYFLSNAEKLLFDHFDLHLVWRDNLVFGCCQGCARTVSLLEFVLYYQESYEVPEIEEILDRPLLQIELRCVTCIKKLSVAEKLEVVSNGERVHRVRNRLKAKCSLCRLYAI
notes: also called HPV 1a E6; cbe_251919
binds: [1] | [2] | [3]

B2: TDE1 (other)
chain: MGAVLGVFSLASWVPCLCSGASCLLCSCCPNSKNSTVTRLIYAFILLLSTVVSYIMQRKEMETYLKKIPGFCEGGFKIHEADINADKDCDVLVGYKAVYRISFAMAIFFFVFSLLMFKVKTSKDLRAAVHNGFWFFKIAALIGIMVGSFYIPGGYFSSVWFVVGMIGAALFILIQLVLLVDFAHSWNESWVNRMEEGNPRLWYAALLSFTSAFYILSIICVGLLYTYYTKPDGCTENKFFISINLILCVVASIISIHPKIQEHQPRSGLLQSSLITLYTMYLTWSAMSNEPDRSCNPNLMSFITRITAPTLAPGNSTAVVPTPTPPSKSGSLLDSDNFIGLFVFVLCLLYSSIRTSTNSQVDKLTLSGSDSVILGDTTTSGASDEEDGQPRRAVDNEKEGVQYSYSLFHLMLCLASLYIMMTLTSWYSPDAKFQSMTSKWPAVWVKISSSWVCLLLYVWTLVAPLVLTSRDFS
notes: also called cbe_3926508
binds: [4]

B3
binds: [5] | [6]

B4: Human papillomavirus 16 E6 (other)
chain: MHQKRTAMFQDPQERPRKLPQLCTELQTTIHDIILECVYCKQQLLRREVYDFAFRDLCIVYRDGNPYAVCDKCLKFYSKISEYRHYCYSLYGTTLEQQYNKPLCDLLIRCINCQKPLCPEEKQRHLDKKQRFHNIRGRWTGRCMSCCRSSRTRRETQL
notes: also called HPV 16 E6; HPV16 E6
binds: [7] | [8] | [9] | [10]

B5: Human Papillomavirus 1a E7 (other)
chain: MVGEMPALKDLVLQLEPSVLDLDLYCYEEVPPDDIEEELVSPQQPYAVVASCAYCEKLVRLTVLADHSAIRQLEELLLRSLNIVCPLCTLQRQ
notes: also called HPV 1a E7; cbe_251925
binds: [11] | [12] | [13] | [14] | [15]
